Reference: patent US11306156
Values belong to the substance of their own block, whether it stands above or below them.

Key:
[1] = target: D3H44 light chain Q124E_V133D with N-terminal HA or FLAG tag; assay: LCCA (SPR tag readout), L1:L2 DNA 1:3, normalized to 1:1; competing light chain m9
[2] = target: D3H44 light chain Q124R_T178R with N-terminal HA or FLAG tag; assay: LCCA (SPR tag readout), L1:L2 DNA 1:9, normalized to 1:1; competing light chain m16
[3] = target: D3H44 light chain Q124R_T178R with N-terminal HA or FLAG tag; assay: LCCA (SPR tag readout), L1:L2 DNA 1:3, normalized to 1:1; competing light chain m16
[4] = target: D3H44 light chain Q124E_V133D with N-terminal HA or FLAG tag; assay: LCCA (SPR tag readout), L1:L2 DNA 1:9, normalized to 1:1; competing light chain m9
[5] = target: D3H44 light chain F116C_Q124R_T178R with N-terminal HA or FLAG tag; assay: LCCA (SPR tag readout), L1:L2 DNA 1:3, normalized to 1:1; competing light chain m18
[6] = target: D3H44 light chain Q124K_T178R with N-terminal HA or FLAG tag; assay: as above
[7] = target: D3H44 light chain Q124R_T178R with N-terminal HA or FLAG tag; assay: LCCA (SPR tag readout), L1:L2 DNA 1:9, normalized to 1:1; competing light chain m10
[8] = target: D3H44 light chain Q124K_T178R with N-terminal HA or FLAG tag; assay: LCCA (SPR tag readout), L1:L2 DNA 1:9, normalized to 1:1; competing light chain m18
[9] = target: D3H44 light chain Q124K_T178R with N-terminal HA or FLAG tag; assay: LCCA (SPR tag readout), L1:L2 DNA 1:9, normalized to 1:1; competing light chain m13
[10] = target: D3H44 light chain Q124E_T180E with N-terminal HA or FLAG tag; assay: LCCA (SPR tag readout), L1:L2 DNA 1:3, normalized to 1:1; competing light chain m19
[11] = target: D3H44 light chain Q124E_Q160E_T180E with N-terminal HA or FLAG tag; assay: LCCA (SPR tag readout), L1:L2 DNA 1:3, normalized to 1:1; competing light chain m17
[12] = target: D3H44 light chain Q124E_T180E with N-terminal HA or FLAG tag; assay: LCCA (SPR tag readout), L1:L2 DNA 1:3, normalized to 1:1; competing light chain m9
[13] = target: D3H44 light chain Q124E_T178E_T180E with N-terminal HA or FLAG tag; assay: as above
[14] = target: D3H44 light chain Q124R_T178R with N-terminal HA or FLAG tag; assay: LCCA (SPR tag readout), L1:L2 DNA 1:3, normalized to 1:1; competing light chain m13
[15] = target: D3H44 light chain T178R with N-terminal HA or FLAG tag; assay: as above
[16] = target: D3H44 light chain Q124K_T178R with N-terminal HA or FLAG tag; assay: as above
[17] = target: D3H44 light chain Q124R_T178K with N-terminal HA or FLAG tag; assay: as above
[18] = target: D3H44 light chain Q124E_Q160E_T180E with N-terminal HA or FLAG tag; assay: LCCA (SPR tag readout), L1:L2 DNA 1:3, normalized to 1:1; competing light chain m12
[19] = target: D3H44 light chain Q124E_T180E with N-terminal HA or FLAG tag; assay: as above
[20] = target: D3H44 light chain Q124E_Q160E_T180E with N-terminal HA or FLAG tag; assay: LCCA (SPR tag readout), L1:L2 DNA 1:9, normalized to 1:1; competing light chain m12
[21] = target: D3H44 light chain Q124E_T180E with N-terminal HA or FLAG tag; assay: as above
[22] = target: D3H44 light chain Q124E_T178E_T180E with N-terminal HA or FLAG tag; assay: LCCA (SPR tag readout), L1:L2 DNA 1:9, normalized to 1:1; competing light chain m9
[23] = target: D3H44 light chain Q124E_T180E with N-terminal HA or FLAG tag; assay: LCCA (SPR tag readout), L1:L2 DNA 1:3, normalized to 1:1; competing light chain m15
[24] = target: D3H44 light chain Q124R_T178R with N-terminal HA or FLAG tag; assay: LCCA (SPR tag readout), L1:L2 DNA 1:3, normalized to 1:1; competing light chain m10
[25] = target: D3H44 Fab heavy chain Q179K, ABD2-His6 tagged; assay: LCCA, SPR of light chain tags; L1:L2 DNA 1:3 normalized to 1:1; competing light chain m16
[26] = target: D3H44 Fab heavy chain L143E_K145T_Q179E, ABD2-His6 tagged; assay: as above
[27] = target: D3H44 Fab heavy chain Q179R, ABD2-His6 tagged; assay: as above
[28] = target: D3H44 Fab heavy chain Q179K, ABD2-His6 tagged; assay: LCCA, SPR of light chain tags; L1:L2 DNA 1:9 normalized to 1:1; competing light chain m16
[29] = target: D3H44 Fab heavy chain L143E_K145T_Q179E, ABD2-His6 tagged; assay: as above
[30] = target: D3H44 Fab heavy chain Q179R, ABD2-His6 tagged; assay: as above
[31] = target: D3H44 light chain Q124E_T180E with N-terminal HA or FLAG tag; assay: LCCA (SPR tag readout), L1:L2 DNA 1:3, normalized to 1:1; competing light chain m14
[32] = target: D3H44 light chain Q124R_T178R with N-terminal HA or FLAG tag; assay: LCCA (SPR tag readout), L1:L2 DNA 1:3, normalized to 1:1; competing light chain m18
[33] = target: D3H44 light chain Q124R_T178K with N-terminal HA or FLAG tag; assay: as above
[34] = target: D3H44 light chain Q124R_T178R with N-terminal HA or FLAG tag; assay: LCCA (SPR tag readout), L1:L2 DNA 1:9, normalized to 1:1; competing light chain m18
[35] = target: D3H44 light chain Q124R_T178K with N-terminal HA or FLAG tag; assay: as above
[36] = target: D3H44 light chain Q124E_Q160E_T180E with N-terminal HA or FLAG tag; assay: LCCA (SPR tag readout), L1:L2 DNA 1:3, normalized to 1:1; competing light chain m9
[37] = target: D3H44 light chain Q124R_Q160K_T178R with N-terminal HA or FLAG tag; assay: LCCA (SPR tag readout), L1:L2 DNA 1:3, normalized to 1:1; competing light chain m13
[38] = target: D3H44 light chain Q124E_Q160E_T180E with N-terminal HA or FLAG tag; assay: LCCA (SPR tag readout), L1:L2 DNA 1:9, normalized to 1:1; competing light chain m9
[39] = target: D3H44 light chain Q124E_Q160E_T180E with N-terminal HA or FLAG tag; assay: LCCA (SPR tag readout), L1:L2 DNA 1:3, normalized to 1:1; competing light chain m15
[40] = target: D3H44 light chain Q124E_Q160E_T180E with N-terminal HA or FLAG tag; assay: LCCA (SPR tag readout), L1:L2 DNA 1:9, normalized to 1:1; competing light chain m15

- H2L2:H2L1 normalized median ratio [1]: 92%
- H2L2:H2L1 normalized median ratio [2]: 8%
- H2L2:H2L1 normalized median ratio [3]: 8%
- H2L2:H2L1 normalized median ratio [4]: 92%
Substance: D3H44 Fab heavy chain L143K with C-terminal ABD2-His6 tag

- H2L2:H2L1 normalized median ratio [5]: 6%
- H2L2:H2L1 normalized median ratio [6]: 8%
- H2L2:H2L1 normalized median ratio [7]: 9%
- H2L2:H2L1 normalized median ratio [8]: 10%
- H2L2:H2L1 normalized median ratio [9]: 13%
- H2L2:H2L1 normalized median ratio [10]: 96%
- H2L2:H2L1 normalized median ratio [11]: 94%
- H2L2:H2L1 normalized median ratio [12]: 96%
- H2L2:H2L1 normalized median ratio [13]: 92%
- H2L2:H2L1 normalized median ratio [14]: 4%
- H2L2:H2L1 normalized median ratio [15]: 4%
- H2L2:H2L1 normalized median ratio [16]: 4%
- H2L2:H2L1 normalized median ratio [17]: 4%
- H2L2:H2L1 normalized median ratio [18]: 92%
- H2L2:H2L1 normalized median ratio [19]: 96%
- H2L2:H2L1 normalized median ratio [20]: 90%
- H2L2:H2L1 normalized median ratio [21]: 87%
- H2L2:H2L1 normalized median ratio [22]: 91%
- H2L2:H2L1 normalized median ratio [23]: 96%
- H2L2:H2L1 normalized median ratio [24]: 8%
Substance: D3H44 Fab heavy chain Q179K with C-terminal ABD2-His6 tag

- H2L2:H2L1 normalized median ratio [25]: 96%
- H1L1:H1L2 normalized median ratio [26]: 14%
- H2L2:H2L1 normalized median ratio [27]: 97%
- H2L2:H2L1 normalized median ratio [28]: 89%
- H1L1:H1L2 normalized median ratio [29]: 15%
- H2L2:H2L1 normalized median ratio [30]: 85%
Substance: D3H44 light chain Q124E_T178E, HA or FLAG tagged

- H1L1:H1L2 normalized median ratio [31]: 31%
- H1L1:H1L2 normalized median ratio [32]: 87%
- H1L1:H1L2 normalized median scalar value ln(r1/f1) [32]: 1.9
- H1L1:H1L2 normalized median ratio [33]: 89%
- H1L1:H1L2 normalized median scalar value ln(r1/f1) [33]: 2.08
- H1L1:H1L2 normalized median ratio [34]: 82%
- H1L1:H1L2 normalized median scalar value ln(r1/f1) [34]: 1.55
- H1L1:H1L2 normalized median ratio [35]: 78%
- H1L1:H1L2 normalized median scalar value ln(r1/f1) [35]: 1.28
- H1L1:H1L2 normalized median ratio [9]: 89%
- H1L1:H1L2 normalized median scalar value ln(r1/f1) [9]: 2.05
- H1L1:H1L2 normalized median ratio [36]: 13%
- H1L1:H1L2 normalized median ratio [12]: 24%
- H1L1:H1L2 normalized median ratio [14]: 76%
- H1L1:H1L2 normalized median scalar value ln(r1/f1) [14]: 1.14
- H1L1:H1L2 normalized median ratio [16]: 85%
- H1L1:H1L2 normalized median scalar value ln(r1/f1) [16]: 1.74
- H1L1:H1L2 normalized median ratio [37]: 69%
- H1L1:H1L2 normalized median scalar value ln(r1/f1) [37]: 0.79
- H1L1:H1L2 normalized median ratio [17]: 84%
- H1L1:H1L2 normalized median scalar value ln(r1/f1) [17]: 1.63
- H1L1:H1L2 normalized median ratio [19]: 15%
- H1L1:H1L2 normalized median ratio [21]: 11%
- H1L1:H1L2 normalized median ratio [38]: 18%
- H1L1:H1L2 normalized median ratio [39]: 11%
- H1L1:H1L2 normalized median ratio [23]: 16%
- H1L1:H1L2 normalized median ratio [40]: 22%
Substance: D3H44 Fab heavy chain L143E_K145T_Q179D with C-terminal ABD2-His6 tag

- H1L1:H1L2 normalized median ratio [5]: 89%
- H1L1:H1L2 normalized median scalar value ln(r1/f1) [5]: 2.08
- H1L1:H1L2 normalized median ratio [11]: 11%
Substance: D3H44 Fab heavy chain A139C_L143E_K145T_Q179E with C-terminal ABD2-His6 tag
